Consider two molecules from paper PMC8091058, “Distinct intramolecular interactions regulate autoinhibition of vinculin binding in αT-catenin and αE-catenin” (The Journal of Biological Chemistry, 2021).

Broadly, the Kd is the free concentration of one partner at which half of the binding sites on the other are occupied at equilibrium, for simple one-to-one binding.

Common to all, as to settings: both partners purified
The target in test [1] is T1, αT-catenin N1-N2 (aa 1–259) (Mus musculus, UniProt Q65CL1 1-259).
T1 construct: αT-catenin, Mus musculus, N1-N2, aa 1-259; in pGEX-TEV; also called αT-catenin WT N1-N2; αT-catenin N1-N2 (1–259); source: E. coli BL21-Gold, purified (glutathione-agarose, TEV cleavage, Mono Q or Mono S, S200)
T1 sequence (looked up): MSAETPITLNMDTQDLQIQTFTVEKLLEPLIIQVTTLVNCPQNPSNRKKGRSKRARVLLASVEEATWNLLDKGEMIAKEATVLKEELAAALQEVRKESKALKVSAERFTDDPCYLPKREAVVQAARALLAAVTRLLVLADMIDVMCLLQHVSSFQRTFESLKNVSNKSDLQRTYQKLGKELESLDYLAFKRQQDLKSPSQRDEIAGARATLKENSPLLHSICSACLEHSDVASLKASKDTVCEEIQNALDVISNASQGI
The experiment in a line: ITC; β-catenin (110-150 μM) or β-catenin–Ncad_(cyto) complex (103-158 μM) injected into αT-catenin fragment in the cell; 25 °C; 20 mM Hepes pH 8.0, 150 mM NaCl, 1 mM TCEP. A general note: ITC needs no label: the signal is the heat of the interaction.

Test [2] addresses T2, αT-catenin head region (aa 1–659) (Mus musculus, UniProt Q65CL1 1-659).
T2 construct: αT-catenin, Mus musculus, head region (N- and M-domains), aa 1-659; in pGEX-TEV; also called αT-catenin head (1–659); αT-catenin N1-M3 (aa 1–659); source: E. coli BL21-Gold, purified (glutathione-agarose, TEV cleavage, Mono Q or Mono S, S200)
T2 sequence (looked up): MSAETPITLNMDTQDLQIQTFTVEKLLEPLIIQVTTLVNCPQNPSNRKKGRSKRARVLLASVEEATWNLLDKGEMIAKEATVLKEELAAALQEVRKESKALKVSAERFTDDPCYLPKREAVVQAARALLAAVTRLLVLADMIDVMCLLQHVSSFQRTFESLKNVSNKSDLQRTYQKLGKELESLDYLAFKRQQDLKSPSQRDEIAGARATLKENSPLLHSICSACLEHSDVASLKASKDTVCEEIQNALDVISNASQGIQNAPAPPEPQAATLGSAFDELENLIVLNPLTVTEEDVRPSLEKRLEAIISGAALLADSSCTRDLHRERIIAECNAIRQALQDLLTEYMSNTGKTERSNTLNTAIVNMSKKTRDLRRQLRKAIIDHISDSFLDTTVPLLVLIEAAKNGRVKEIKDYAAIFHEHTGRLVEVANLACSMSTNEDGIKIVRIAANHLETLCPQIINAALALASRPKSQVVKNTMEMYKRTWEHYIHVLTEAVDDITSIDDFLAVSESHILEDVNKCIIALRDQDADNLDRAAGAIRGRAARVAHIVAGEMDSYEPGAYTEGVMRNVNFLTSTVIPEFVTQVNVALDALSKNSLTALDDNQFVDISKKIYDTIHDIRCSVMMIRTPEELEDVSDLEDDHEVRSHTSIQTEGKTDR
The test is described as above.

Test [3] addresses T3, vinculin D1 (aa 1–259) (UniProt P12003 1-259).
T3 construct: vinculin D1 fragment, aa 1-259, the first 2 four-helix bundles; in pGEX-TEV; also called vinculin aa 1 to 259 (D1); vinculin N-terminus; source: E. coli BL21-Gold, purified (glutathione-agarose, TEV cleavage, Mono Q or Mono S, S200)
T3 sequence (looked up): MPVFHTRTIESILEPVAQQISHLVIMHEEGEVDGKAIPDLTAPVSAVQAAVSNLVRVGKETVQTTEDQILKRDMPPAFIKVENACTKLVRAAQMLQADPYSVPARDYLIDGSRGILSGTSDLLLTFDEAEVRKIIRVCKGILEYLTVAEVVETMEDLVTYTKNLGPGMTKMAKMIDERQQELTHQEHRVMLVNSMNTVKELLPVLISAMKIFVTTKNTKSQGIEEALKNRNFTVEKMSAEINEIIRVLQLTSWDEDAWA
The experiment in a line: ITC; vinculin D1 injected into αT-catenin or αE-catenin fragment (or αT-catenin head–β-catenin complex) in the cell; 25 °C; 20 mM Hepes pH 8.0, 150 mM NaCl, 1 mM TCEP.

B1: β-catenin–N-cadherin cytoplasmic tail complex (complex)
chain 1: MATQADLMELDMAMEPDRKAAVSHWQQQSYLDSGIHSGATTTAPSLSGKGNPEEEDVDTSQVLYEWEQGFSQSFTQEQVADIDGQYAMTRAQRVRAAMFPETLDEGMQIPSTQFDAAHPTNVQRLAEPSQMLKHAVVNLINYQDDAELATRAIPELTKLLNDEDQVVVNKAAVMVHQLSKKEASRHAIMRSPQMVSAIVRTMQNTNDVETARCTAGTLHNLSHHREGLLAIFKSGGIPALVKMLGSPVDSVLFYAITTLHNLLLHQEGAKMAVRLAGGLQKMVALLNKTNVKFLAITTDCLQILAYGNQESKLIILASGGPQALVNIMRTYTYEKLLWTTSRVLKVLSVCSSNKPAIVEAGGMQALGLHLTDPSQRLVQNCLWTLRNLSDAATKQEGMEGLLGTLVQLLGSDDINVVTCAAGILSNLTCNNYKNKMMVCQVGGIEALVRTVLRAGDREDITEPAICALRHLTSRHQEAEMAQNAVRLHYGLPVVVKLLHPPSHWPLIKATVGLIRNLALCPANHAPLREQGAIPRLVQLLVRAHQDTQRRTSMGGTQQQFVEGVRMEEIVEGCTGALHILARDVHNRIVIRGLNTIPLFVQLLYSPIENIQRVAAGVLCELAQDKEAAEAIEAEGATAPLTELLHSRNEGVATYAAAVLFRMSEDKPQDYKKRLSVELTSSLFRTEPMAWNETADLGLDIGAQGEALGYRQDDPSYRSFHSGGYGQDALGMDPMMEHEMGGHHPGADYPVDGLPDLGHAQDLMDGLPPGDSNQLAWFDTDL
chain 2: MKRRDKERQAKQLLIDPEDDVRDNILKYDEEGGGEEDQDYDLSQLQQPDTVEPDAIKPVGIRRLDERPIHAEPQYPVRSAAPHPGDIGDFINEGLKAADNDPTAPPYDSLLVFDYEGSGSTAGSLSSLNSSSSGGDQDYDYLNDWGPRFKKLADMYGGGDD
notes: β-catenin, Mus musculus, full length; N-cadherin cytoplasmic tail (Ncad_(cyto)); the methods name no plasmid for the N-cadherin tail; also called β-catenin–Ncad_(cyto); β-cat–Ncad_(cyto); source: β-catenin: E. coli BL21-Gold, purified
For B1, the dH in test [1] was -18.9 ± 1 kcal/mol; in test [2], -27 ± 0.2 kcal/mol.

B2: αE-catenin M1-M2 (aa 273–510) (domain or fragment, Mus musculus, UniProt P26231 273-510, looked up)
chain: GSGGELAYALNNFDKQIIVDPLSFSEERFRPSLEERLESIISGAALMADSSCTRDDRRERIVAECNAVRQALQDLLSEYMGNAGRKERSDALNSAIDKMTKKTRDLRRQLRKAVMDHVSDSFLETNVPLLVLIEAAKNGNEKEVKEYAQVFREHANKLIEVANLACSISNNEEGVKLVRMSASQLEALCPQVINAALALAAKPQSKLAQENMDLFKEQWEKQVRVLTDAVDDITSIDD
notes: αE-catenin, Mus musculus, M1-M2, aa 273-510; in pGEX-TEV; also called αE-catenin M1-M2 (273–510); source: E. coli BL21-Gold, purified (glutathione-agarose, TEV cleavage, Mono Q or Mono S, S200)
For B2, binding in test [3] was characterised by a dissociation constant (Kd) of 31.9 ± 9.1 nM.
